According to patent US20230024461A1, “METHODS FOR DUAL DNA/PROTEIN TAGGING OF OPEN CHROMATIN” (Beth Israel Deaconess Medical Center, Inc., priority 2019, published 2023):

Key:
[1] = test system: K562 nuclei; experiment: iDAPT protein labeling, western blot of labeled nuclear lysates; format: biochemical, human
Experimental: (§1) DNA and protein tagging by iDAPT. All iDAPT proteomic labeling assays were performed as described below unless indicated otherwise. 2.5 μmol MEDS-A/B, 2 μmol enzyme, and 1 μmol hemin chloride per channel were incubated at room temperature for 1 hour. 1e7 cells per sample were washed (500×g, 5 minutes, 4° C.), lysed and triturated in 100 μL LB1 (10 mM Tris-HCl pH 7.5, 10 mM NaCl, 3 mM MgCl2, 1% BSA, 0.01% digitonin, 0.1% Tween-20, 0.1% NP-40, and 1× cOmplete EDTA-free protease inhibitor cocktail [Roche]) for 3 minutes, and subsequently supplemented with an additional 1 mL of LB2 (10 mM Tris-HCl pH 7.5, 10 mM NaCl, 3 mM MgCl2, 1% BSA, 0.1% Tween-20, and 1× protease inhibitor). Nuclei were pelleted (500×g, 10 minutes, 4° C.), resuspended with tagmentation reaction mixture (20% dimethylformamide, 10 mM MgCl2, 20 mM Tris-HCl pH 7.5, 33% 1×PBS, 1% BSA, 0.01% digitonin, 0.1% Tween-20, 500 μM biotin-phenol, 1× protease inhibitor, and 2 pmol enzyme equivalent of enzyme:DNA:heme complex in a total volume of 500 μL), and incubated at 37° C. for 30 minutes with agitation on a thermomixer (1,000 rpm). 5 μL of tagmentation mix was saved for quality assessment as described above for ATAC-seq/iDAPT-seq sample preparation. The remaining nuclear suspension was then washed 2× with 1×PBS supplemented with 500 μM biotin-phenol, 1% BSA, 0.1% Tween-20, and 1× protease inhibitor (3000×g, 5 minutes, 4° C.) and labeled with 1 mM hydrogen peroxide and 500 μM biotin-phenol for 1 minute in 1×PBS with 1× protease inhibitor in a volume of 500 μL. Peroxidation reactions were quenched with 500 μL 2× quenching buffer (10 mM Trolox, 20 mM sodium ascorbate, 20 mM NaN3, and 1× protease inhibitor in 1×PBS). Labeled nuclei were then pelleted, washed with 1× quenching buffer, resuspended in 500 μL RIPA containing protease inhibitors, and frozen at −80° C. Lysates were thawed on ice, sonicated via a Sonic Dismembrator 100 (Fisher Scientific, setting 3, 15 seconds, 4 pulses), and incubated on ice for 30 minutes after the addition of 1 μL benzonase (EMD Millipore). Lysates were clarified by centrifugation (15,000×g, 20 minutes, 4° C.), quantified via the detergent-compatible Bradford assay (Thermo Fisher Scientific), and subjected to either Western blotting or quantitative mass spectrometry analyses as described below. For NB4 cell analysis, an additional endogenous peroxidase blocking step was added after nuclear extraction and before tagmentation: nuclei were resuspended in 500 μL 1×PBS containing 1% BSA, 0.03% hydrogen peroxide, and 0.1% NaN3 and incubated on ice for 30 minutes. Nuclei were pelleted and washed 4× with 1×PBS/1% BSA (3000×g, 5 minutes, 4° C.). Residual hydrogen peroxide was monitored by colorimetric assessment of supernatant via Quantofix peroxides test stick (Sigma).
(§2) Western blotting analysis. Whole cell or nuclear lysates were generated by resuspending cells or nuclei in RIPA (Boston BioProducts) supplemented with 1× cOmplete EDTA-free protease inhibitor cocktail (Roche). […] Lysates were clarified by centrifugation (15,000×g, 20 minutes, 4° C.) and their concentrations quantified via the detergent-compatible Bradford assay (Thermo Fisher Scientific). […] Membranes were blocked with 3% milk in PBS-T and incubated overnight with primary antibody and subsequently with secondary antibody after brief washing with PBS-T. Chemiluminescence was determined by applying ECL Western Blotting detection reagent (GE Healthcare) to membranes and imaging on an Amersham Imager 600 (GE Healthcare). […]

[2] = test system: GM12878 nuclei; experiment: Peroxidase-mediated biotin labeling after transposition, western blot; format: biochemical, human
Experimental: Western blot. Whole cell lysate was generated by resuspending cells washed with 1×PBS in RIPA (Boston BioProducts) supplemented with 1× complete EDTA-free protease inhibitor cocktail (Roche). Cells were subject to sonication via a Sonic Dismembrator 100 (Fisher Scientific) at setting 2, with 3 pulses of 15 seconds on/off on ice. Lysates were clarified by centrifugation (15,000×g, 30 minutes, 4° C.) and their concentrations quantified with detergent-compatible Bradford assay (Thermo Fisher Scientific). All Western blots were run on NuPAGE 4-12% Bis-Tris protein gels (Thermo Fisher Scientific) and transferred to […] nitrocellulose membranes (GE Healthcare). Membranes were stained with Ponceau S, blocked with 3% milk in PBS-T, and incubated overnight with primary antibody and subsequently with secondary antibody after brief washing with PBS-T. Chemiluminescence was determined by applying ECL Western Blotting detection reagent (GE Healthcare) to membranes and imaging on an Amersham Imager 600 (GE Healthcare). Membranes were stripped with Restore PLUS Stripping Buffer (Thermo Fisher Scientific); streptavidin-HRP was inactivated with 15% hydrogen peroxide. […]

[3] = test system: HEK293T nuclei; experiment: iDAPT protein labeling, western blot of labeled nuclear lysates; format: biochemical, human; details: extracted HEK293T nuclei
Experimental: as §1, §2

[4] = test system: HT1080 cells; experiment: Co-immunofluorescence/ATAC-see analysis; format: cell-based, human
Experimental: Co-immunofluorescence/ATAC-see analysis. ATAC-see was performed similarly as previously described with slight modifications (Chen et al., Nat. Methods 13:1013-1020, 2016). Enzyme and transposon DNA were mixed at a 1:1.25 enzyme:MEDS-A/B-AF647 molar ratio and incubated at room temperature for 1 hour. Adherent cells were grown on glass coverslips (Fisher Scientific, 12-540A) until 80-90% confluent, washed with 1×PBS, fixed with 1% formaldehyde (Electron Microscopy Services) in 1×PBS for 10 minutes, and washed twice with ice-cold 1×PBS. Suspension cells were washed and resuspended with 1×PBS. 50,000 cells were added to poly-lysine slides and incubated at room temperature for 1 hour in a humidified chamber. An equal volume of 2% formaldehyde was added and incubated for 10 minutes, whereupon slides were washed twice with ice-cold 1×PBS. Immobilized cells were lysed by incubation with LB1 for 3 minutes followed by LB2 for 10 minutes at room temperature. Cells were then subject to tagmentation (20% dimethylformamide, 10 mM MgCl2, 20 mM Tris-HCl pH 7.5, 33% 1×PBS, 0.01% digitonin, 0.1% Tween-20, and either 80 pmol enzyme equivalent of enzyme:DNA complex in a total volume of 100 μL for adherent cells or 10 pmol enzyme equivalent of enzyme:DNA complex in a total volume of 50 μL for suspension cells) for 30 minutes at 37° C. in a humidified chamber. Subsequently, cells were washed with 50 mM EDTA and 0.01% SDS in 1×PBS three times for 15 minute each at 55° C., lysed for 10 minutes with 0.5% Triton X-100 in 1×PBS at room temperature, and blocked with 1% BSA and 10% goat serum in PBS-T for 1 hour in a humidified chamber. Primary antibody was added to slides in 1% BSA/PBS-T and incubated at 4° C. overnight; slides were then washed and subjected to secondary antibody staining for 1 hour. Slides were washed with PBS-T three times for 15 minutes each, stained with DAPI (Sigma, 1 μg/mL) for 1 minute, washed with PBS for 10 minutes, and mounted with Fluorescence Mounting Medium (Dako). Confocal microscopy images were taken with an LSM 880 Axio Imager 2 at 63× magnification (Zeiss). Images were processed with Fiji/ImageJ v2.0.0.
Primary antibodies used were anti-RNA polymerase II CTD repeat YSPTSPS (phospho S2) (rabbit, Abcam ab5095, 1:500), anti-H3K27Ac (rabbit, Abcam ab4729, 1:500), anti-H3K9me3 (rabbit, Abcam ab8898, 1:500), anti-CCDCl2 (rabbit, Atlas Antibodies HPA060530, 1:200), anti-SNRPA (mouse, 3F9-1F7, Sigma-Aldrich WH0006626M1, 1:100). […]
Quantitative image analyses were performed with CellProfiler v3.1.5. […] Pearson correlation coefficients were determined by comparing ATAC-see pixel intensities with corresponding immunofluorescence intensity values within each ROI to assess the nucleus-to-nucleus variation in colocalization. […]

| Molecule | biotin labeling [1] | biotinylation signal (streptavidin) [2] | peroxidase-dependent biotin signal [3] | ATAC-see correlation with H3K9me3 immunofluorescence ([4]; marker of transcriptionally inactive chromatin) | ATAC-see correlation with H3K27Ac and RNAPII S2P immunofluorescence signal ([4]; markers of transcriptionally active chromatin) |
| --- | --- | --- | --- | --- | --- |
| TP5: Tn5 transposase-GSGAGA linker-APEX2 peroxidase fusion, C-terminal FLAG; amino acid SEQ ID NO: 31 (protein, C-terminal FLAG) MITSALHRAADWAKSVFSSAALGDPRRTARLVNVAAQLAKYSGKSITISSEGSKAMQEGAYRFIRNPNVSAEAIRKAGAMQTVKLAQEFPELLAIEDTTSLSYRHQVAEELGKLGSIQDKSRGWWVHSVLLLEATTFRTVGLLHQEWWMRPDDPADADEKESGKWLAAAATSRLRMGSMMSNVIAVCDREADIHAYLQDKLAHNERFVVRSKHPRKDVESGLYLYDHLKNQPELGGYQISIPQKGVVDKRGKRKNRPARKASLSLRSGRITLKQGNITLNAVLAEEINPPKGETPLKWLLLTSEPVESLAQALRVIDIYTHRWRIEEFHKAWKTGAGAERQRMEEPDNLERMVSILSFVAVRLLQLRESFTPPQALRAQGLLKEAEHVESQSAETVLTPDECQLLGYLDKGKRKRKEKAGSLQWAYMAIARLGGFMDSKRTGIASWGALWEGWEALQSKLDGFLAAKDLMAQGIKIGSGAGAGKSYPTVSADYQDAVEKAKKKLRGFIAEKRCAPLMLRLAFHSAGTFDKGTKTGGPFGTIKHPAELAHSANNGLDIAVRLLEPLKAEFPILSYADFYQLAGVVAVEVTGGPKVPFHPGREDKPEPPPEGRLPDPTKGSDHLRDVFGKAMGLTDQDIVALSGGHTIGAAHKERSGFEGPWTSNPLIFDNSYFTELLSGEKEGLLQLPSDKALLSDPVFRPLVDKYAADEDAFFADYAEAHQKLSELGFADADYKDDDDK | highest levels of labeling | highest signals |  |  |  |
| Tn5-F: FLAG-tagged Tn5 transposase purified in-house, negative control probe; amino acid SEQ ID NO: 19 (protein, FLAG tag) MITSALHRAADWAKSVFSSAALGDPRRTARLVNVAAQLAKYSGKSITISSEGSKAMQEGAYRFIRNPNVSAEAIRKAGAMQTVKLAQEFPELLAIEDTTSLSYRHQVAEELGKLGSIQDKSRGWWVHSVLLLEATTFRTVGLLHQEWWMRPDDPADADEKESGKWLAAAATSRLRMGSMMSNVIAVCDREADIHAYLQDKLAHNERFVVRSKHPRKDVESGLYLYDHLKNQPELGGYQISIPQKGVVDKRGKRKNRPARKASLSLRSGRITLKQGNITLNAVLAEEINPPKGETPLKWLLLTSEPVESLAQALRVIDIYTHRWRIEEFHKAWKTGAGAERQRMEEPDNLERMVSILSFVAVRLLQLRESFTPPQALRAQGLLKEAEHVESQSAETVLTPDECQLLGYLDKGKRKRKEKAGSLQWAYMAIARLGGFMDSKRTGIASWGALWEGWEALQSKLDGFLAAKDLMAQGIKIDYKDDDDK |  |  | low signal | similarly poor correlations | similarly positive correlations |
